Measured values from patent EP4707301A1 (AJOU UNIVERSITY INDUSTRY-ACADEMIC COOPERATION FOUNDATION, dated 2026).

Assays:
[1] = target: T1, human IL-5Rα expressed on the K562/IL-5Rα cell line (human, UniProt Q01344 21-420); test: cell-based or functional assay
T1 sequence (looked up): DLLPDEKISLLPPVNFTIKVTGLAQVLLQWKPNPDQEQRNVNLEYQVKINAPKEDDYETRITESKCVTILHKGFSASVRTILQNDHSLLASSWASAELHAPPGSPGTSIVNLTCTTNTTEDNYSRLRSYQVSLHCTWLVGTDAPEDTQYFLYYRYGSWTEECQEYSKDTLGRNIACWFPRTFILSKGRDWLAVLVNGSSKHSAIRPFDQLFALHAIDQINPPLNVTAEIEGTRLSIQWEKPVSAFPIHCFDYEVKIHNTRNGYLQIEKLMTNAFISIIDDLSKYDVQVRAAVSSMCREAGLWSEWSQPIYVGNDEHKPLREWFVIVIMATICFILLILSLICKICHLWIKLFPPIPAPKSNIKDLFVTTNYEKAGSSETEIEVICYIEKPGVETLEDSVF

[2] = target: human CD3ε on activated PBMC (human, UniProt P07766 23-207); test: cell-based or functional assay
Chain of human CD3ε on activated PBMC (P07766 23-207): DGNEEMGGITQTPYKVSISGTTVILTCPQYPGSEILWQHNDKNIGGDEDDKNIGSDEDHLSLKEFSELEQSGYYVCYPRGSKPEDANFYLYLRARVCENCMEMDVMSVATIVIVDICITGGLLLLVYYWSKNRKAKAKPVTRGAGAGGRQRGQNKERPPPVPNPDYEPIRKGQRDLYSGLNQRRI

[3] = target: T2, hIL-5Rα, purified recombinant protein (human, UniProt Q01344 21-342, limits assumed); test: BLI (Octet QKe), ratio of the KD values of Table 2
T2 construct: Soluble antigen of the Octet experiments
T2 sequence (looked up): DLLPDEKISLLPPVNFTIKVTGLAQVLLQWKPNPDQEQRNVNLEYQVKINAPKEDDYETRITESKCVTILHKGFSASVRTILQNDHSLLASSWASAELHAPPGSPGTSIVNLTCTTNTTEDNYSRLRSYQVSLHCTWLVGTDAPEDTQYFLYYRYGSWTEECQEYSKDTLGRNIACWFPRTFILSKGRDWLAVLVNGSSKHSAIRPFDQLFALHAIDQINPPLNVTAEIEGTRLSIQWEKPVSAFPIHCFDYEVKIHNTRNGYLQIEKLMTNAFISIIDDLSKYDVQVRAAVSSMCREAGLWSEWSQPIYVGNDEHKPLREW

[4] = target: T3, CD3ε, commercially available (sinobiological, 10977-H08H) (UniProt P07766 23-126); test: BLI (Octet QKe), antibody captured on AHC sensor, antigen 125-4,000 nM, 1:1 model
T3 construct: Bought protein
T3 sequence (P07766 23-126 limits assumed): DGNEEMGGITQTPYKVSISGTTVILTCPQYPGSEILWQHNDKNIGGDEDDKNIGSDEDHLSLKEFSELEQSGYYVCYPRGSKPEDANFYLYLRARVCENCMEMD

[5] = target: T2, hIL-5Rα, purified recombinant protein; test: as above

B1: IL-5Rα×CD3ε-scFv(L)/scFv-Fc (bispecific antibody, human IgG1)
chain 1: QAVVTQESALTTSPGETVTLTCRSSTGAVTTSNYANWVQEKPDHLFTGLIGGTNKRAPGVPARFSGSLIGDKAALTITGAQTEDEAIYFCALWYSNLWVFGGGTKLTVLGGGGSGGGGSGGGGSEVQLVESGGGLVQPKGSLKLSCAASGFTFNTYAMNWVRQAPGKGLEWVARIRSKYNNYATYYADSVKDRFTISRDDSQSILYLQMNNLKTEDTAMYYCVRHGNFGNSYVSWFAYWGQGTLVTVSSEPKSCDKTHTCPPCPAPEFEGGPSVFLFPPKPKDTLMISRTPEVTCVVVAVSHEDPEVKFNWYVDGVEVHNAKTKPREEQYNSTYRVVSVLTVLHQDWLNGKEYKCKVSNKALPAPIEKTISKAKGQPREPQVYTLPPSRDELTENQVSLTCLVKGFYPSDIAVEWESNGQPENNYKTTPPVLDSDGSFFLYSWLTVDKSRWQQGNVFSCSVMHEALHNHYTQKSLSLSPGK
chain 2: DIQMTQSPSTLSASVGDRVTITCKASQNVGTAVAWYQQKPGKAPKLLIYWASTRHTGVPDRFSGSGSGTDFTLTISSLQPDDFATYYCQQFGRYPYTFGSGTKVEVKGGGGSGGGGSGGGGSQVQLVQSGAEVKKPGSSVKVSCKASGYTFTSYWINWVRQAPGQGLEWIGHIYPNKNENYYNHKFKDKATLTVDKSTNTAYMELSSLRSEDTAVYYCTREFYGRQYYQAMDYWGQGTTLTVSSEPKSCDKTHTCPPCPAPEFEGGPSVFLFPPKPKDTLMISRTPEVTCVVVAVSHEDPEVKFNWYVDGVEVHNAKTKPREEQYNSTYRVVSVLTVLHQDWLNGKEYKCKVSNKALPAPIEKTISKAKGQPREPRVYTLPPSRDELTKNQVSLTCLVKGFYPSDIAVEWESNGQPENNYKTTPPVLVSDGSFTLYSKLTVDKSRWQQGNVFSCSVMHEALHNHYTQKSLSLSPGK
notes: Built from 5R65.7 and humanized SP34 scFvs with (G4S)3 linkers and an IgG1 hinge; Heterodimeric IgG1 Fc with EW-RVT and FEA mutations; also called IL-5Rα×CD3α-scFv(L)/scFv-Fc
Question: B1 was tested. Which “24hr EC50 of T cell-mediated cytotoxicity (LDH release) against K562/IL-5Rα, activated PBMC, E:T 5:1” value (“24hr EC50” below) [1] did it give?
Answer: The value was 0.000857 nM.

Question: And the “IFN-γ EC50 (pM), ELISA of supernatant after 24 h co-culture of activated PBMC and K562/IL-5Rα” value (shortened to “IFN-γ EC50 (pM), ELISA of supernatant”) [2]?
Answer: Its value is 770 pM.

Question: What about the “fold higher binding affinity for IL-5Rα than the Diabody-Fc format” value [3] of the same binder?
Answer: Its value is ~2.1 fold.

Question: And the Kd [4]?
Answer: Its Kd is 3.61 nM.

Question: And the koff [4]?
Answer: Its koff is 0.000634 s⁻¹.

Question: And the kon [4]?
Answer: The kon was 176000 M⁻¹ s⁻¹.

Question: What about the Kd [5] of the same binder?
Answer: Its Kd is 59.8 nM.

Question: And the koff [5]?
Answer: The koff was 0.000171 s⁻¹.

Question: And the kon [5]?
Answer: The kon was 2850 M⁻¹ s⁻¹.

B2: IL-5Rα×CD3ε-Diabody-Fc (bispecific antibody)
chain 1: DIQMTQSPSTLSASVGDRVTITCKASQNVGTAVAWYQQKPGKAPKLLIYWASTRHTGVPDRFSGSGSGTDFTLTISSLQPDDFATYYCQQFGRYPYTFGSGTKVEVKGGGSGGGGEVQLVESGGGLVQPKGSLKLSCAASGFTFNTYAMNWVRQAPGKGLEWVARIRSKYNNYATYYADSVKDRFTISRDDSQSILYLQMNNLKTEDTAMYYCVRHGNFGNSYVSWFAYWGQGTLVTVSSGCPPCPAPEFEGGPSVFLFPPKPKDTLMISRTPEVTCVVVAVSHEDPEVKFNWYVDGVEVHNAKTKPREEQYNSTYRVVSVLTVLHQDWLNGKEYKCKVSNKALPAPIEKTISKAKGQPREPQVYTLPPSRDELTENQVSLTCLVKGFYPSDIAVEWESNGQPENNYKTTPPVLDSDGSFFLYSWLTVDKSRWQQGNVFSCSVMHEALHNHYTQKSLSLSPGK
chain 2: QAVVTQESALTTSPGETVTLTCRSSTGAVTTSNYANWVQEKPDHLFTGLIGGTNKRAPGVPARFSGSLIGDKAALTITGAQTEDEAIYFCALWYSNLWVFGGGTKLTVLGGGSGGGGQVQLVQSGAEVKKPGSSVKVSCKASGYTFTSYWINWVRQAPGQGLEWIGHIYPNKNENYYNHKFKDKATLTVDKSTNTAYMELSSLRSEDTAVYYCTREFYGRQYYQAMDYWGQGTTLTVSSGCPPCPAPEFEGGPSVFLFPPKPKDTLMISRTPEVTCVVVAVSHEDPEVKFNWYVDGVEVHNAKTKPREEQYNSTYRVVSVLTVLHQDWLNGKEYKCKVSNKALPAPIEKTISKAKGQPREPRVYTLPPSRDELTKNQVSLTCLVKGFYPSDIAVEWESNGQPENNYKTTPPVLVSDGSFTLYSKLTVDKSRWQQGNVFSCSVMHEALHNHYTQKSLSLSPGK
notes: Built from 5R65.7 (anti-IL-5Rα) and humanized SP34 (anti-CD3ε); Heterodimeric IgG1 Fc with EW-RVT and L234F/L235E/D265A (FEA) mutations
Question: What does the source list for B2?
Answer: 24hr EC50 of T cell-mediated cytotoxicity (LDH release) against K562/IL-5Rα, activated PBMC, E:T 5:1 [1]: 0.00497 nM; IFN-γ EC50 (pM), ELISA of supernatant after 24 h co-culture of activated PBMC and K562/IL-5Rα [2]: 2340 pM; Kd [4]: 8.41 nM; koff [4]: 0.00141 s⁻¹; kon [4]: 167000 M⁻¹ s⁻¹; Kd [5]: 123 nM; koff [5]: 0.000306 s⁻¹; kon [5]: 2500 M⁻¹ s⁻¹

B3: IL-5Rα×CD3ε-BiTE(L)/scFv-Fc (bispecific antibody, human IgG1)
chain 1: DIQMTQSPSTLSASVGDRVTITCKASQNVGTAVAWYQQKPGKAPKLLIYWASTRHTGVPDRFSGSGSGTDFTLTISSLQPDDFATYYCQQFGRYPYTFGSGTKVEVKGGGGSGGGGSGGGGSQVQLVQSGAEVKKPGSSVKVSCKASGYTFTSYWINWVRQAPGQGLEWIGHIYPNKNENYYNHKFKDKATLTVDKSTNTAYMELSSLRSEDTAVYYCTREFYGRQYYQAMDYWGQGTTLTVSSGGGGSQAVVTQESALTTSPGETVTLTCRSSTGAVTTSNYANWVQEKPDHLFTGLIGGTNKRAPGVPARFSGSLIGDKAALTITGAQTEDEAIYFCALWYSNLWVFGGGTKLTVLGGGGSGGGGSGGGGSEVQLVESGGGLVQPKGSLKLSCAASGFTFNTYAMNWVRQAPGKGLEWVARIRSKYNNYATYYADSVKDRFTISRDDSQSILYLQMNNLKTEDTAMYYCVRHGNFGNSYVSWFAYWGQGTLVTVSSEPKSCDKTHTCPPCPAPEFEGGPSVFLFPPKPKDTLMISRTPEVTCVVVAVSHEDPEVKFNWYVDGVEVHNAKTKPREEQYNSTYRVVSVLTVLHQDWLNGKEYKCKVSNKALPAPIEKTISKAKGQPREPQVYTLPPSRDELTENQVSLTCLVKGFYPSDIAVEWESNGQPENNYKTTPPVLDSDGSFFLYSWLTVDKSRWQQGNVFSCSVMHEALHNHYTQKSLSLSPGK
chain 2: QVQLVQSGAEVKKPGSSVKVSCKASGYTFTSYWINWVRQAPGQGLEWIGHIYPNKNENYYNHKFKDKATLTVDKSTNTAYMELSSLRSEDTAVYYCTREFYGRQYYQAMDYWGQGTTLTVSSGGGGSGGGGSGGGGSDIQMTQSPSTLSASVGDRVTITCKASQNVGTAVAWYQQKPGKAPKLLIYWASTRHTGVPDRFSGSGSGTDFTLTISSLQPDDFATYYCQQFGRYPYTFGSGTKVEVKEPKSCDKTHTCPPCPAPEFEGGPSVFLFPPKPKDTLMISRTPEVTCVVVAVSHEDPEVKFNWYVDGVEVHNAKTKPREEQYNSTYRVVSVLTVLHQDWLNGKEYKCKVSNKALPAPIEKTISKAKGQPREPRVYTLPPSRDELTKNQVSLTCLVKGFYPSDIAVEWESNGQPENNYKTTPPVLVSDGSFTLYSKLTVDKSRWQQGNVFSCSVMHEALHNHYTQKSLSLSPGK
notes: Heterodimeric IgG1 Fc with EW-RVT and FEA mutations
Question: Which “24hr EC50” value [1] does the source give for B3 here?
Answer: Its value is 0.0147 nM.

Question: And the “IFN-γ EC50 (pM), ELISA of supernatant” value [2]?
Answer: The value was 31000 pM.

Question: What about the Kd [4] of the same binder?
Answer: The Kd was 4.62 nM.

Question: What about the koff [4] of the same binder?
Answer: Its koff is 0.000827 s⁻¹.

Question: What about the kon [4] of the same binder?
Answer: Its kon is 179000 M⁻¹ s⁻¹.

Question: And the Kd [5]?
Answer: Its Kd is 22.9 nM.

Question: What about the koff [5] of the same binder?
Answer: Its koff is 0.000708 s⁻¹.

Question: And the kon [5]?
Answer: The kon was 30900 M⁻¹ s⁻¹.

B4: IL-5Rα×CD3ε-IgG analog (bispecific antibody)
heavy 1: QVQLVQSGAEVKKPGSSVKVSCKASGYTFTSYWINWVRQAPGQGLEWIGHIYPNKNENYYNHKFKDKATLTVDKSTNTAYMELSSLRSEDTAVYYCTREFYGRQYYQAMDYWGQGTTLTVSSASTKGPSVFPLAPSSKSTSGGTAALGCLVKDYFPEPVTVSWNSGALTSGVHTFPAVLQSSGLYSLSSVVTVPSSSLGTQTYICNVNHKPSNTKVDKKVEPKSCDKTHTCPPCPAPEFEGGPSVFLFPPKPKDTLMISRTPEVTCVVVAVSHEDPEVKFNWYVDGVEVHNAKTKPREEQYNSTYRVVSVLTVLHQDWLNGKEYKCKVSNKALPAPIEKTISKAKGQPREPRVYTLPPSRDELTKNQVSLTCLVKGFYPSDIAVEWESNGQPENNYKTTPPVLVSDGSFTLYSKLTVDKSRWQQGNVFSCSVMHEALHNHYTQKSLSLSPGK
light: DIQMTQSPSTLSASVGDRVTITCKASQNVGTAVAWYQQKPGKAPKLLIYWASTRHTGVPDRFSGSGSGTDFTLTISSLQPDDFATYYCQQFGRYPYTFGSGTKVEVKRTVAAPSVFIFPPSDEQLKSGTASVKCLLNNFYPREAKVQWKVDNALQSGNSQESVTEQDSKDSTYSLSSTLTLSKADYEKHKVYACEVTHQGLSSPVTKSFNRGEC
heavy 2: not shown
chain: QAVVTQESALTTSPGETVTLTCRSSTGAVTTSNYANWVQEKPDHLFTGLIGGTNKRAPGVPARFSGSLIGDKAALTITGAQTEDEAIYFCALWYSNLWVFGGGTKLTVLRTVAAPSVFIFPPSDEQLKSGTASVECLLNNFYPREAKVQWKVDNALQSGNSQESVTEQDSKDSTYSLSSTLTLSKADYEKHKVYACEVTHQGLSSPVTKSFNRGEC
notes: Four-chain molecule: SP34 heavy and light chains and 5R65.7 heavy and light chains, with complementary CH1/CL mutations, EW-RVT and FEA
Question: B4 was tested. Which “24hr EC50” value [1] did it give?
Answer: Its value is 0.0231 nM.

Question: What about the “IFN-γ EC50 (pM), ELISA of supernatant” value [2] of the same binder?
Answer: Its value is 2210 pM.

Question: And the Kd [4]?
Answer: Its Kd is 1.71 nM.

Question: And the koff [4]?
Answer: Its koff is 0.000474 s⁻¹.

Question: And the kon [4]?
Answer: The kon was 278000 M⁻¹ s⁻¹.

Question: What about the Kd [5] of the same binder?
Answer: The Kd was 30.5 nM.

Question: What about the koff [5] of the same binder?
Answer: Its koff is 0.00011 s⁻¹.

Question: And the kon [5]?
Answer: Its kon is 3610 M⁻¹ s⁻¹.
